From patent publication US20240368279A1 (SHANGHAI SINOBAY BIOTECHNOLOGY, published 2024)

B1: Hu004-65 antibody (full-length human IgG1, kappa) (antibody, V domains shown)
VH: EVQLVESGGGLVQPGGSLRLSCAASGFTFSGYGMSWVRQAPGKGLEWVATITSGGTYTYYPDSVKGRFTISRDNAKNSLYLQMNSLRAEDTAVYYCARSLAGNAMDYWGQGTLVTVSS
VL: DIQMTQSPSSLSASVGDRVTITCRASQSITKSLNWYQQKPGKAPRLLIRVASTLQSGVPSRFSGSGSGTDFTLTISSLQPEDFATYYCQHSYSFGQGTKLEIT
notes: also called candidate antibody Hu004-65; monoclonal antibody Hu004-65
B2: Hu004-101 antibody (full-length human IgG1, kappa) (antibody, V domains shown)
VH: B1 VH
VL: DIQMTQSPSTLSASVGDRVTITCRASQSISNWLAWYQQKPGEAPKLLIYKASNLESGVPSRFSGSGSGTEFTLTISSLQPDDFATYYCQQFGTFGQGTKVEIK

Target: human CD47 protein (antigen of the SPR affinity determination) (human, UniProt Q08722 19-139, limits assumed)
Assay: affinity for a human CD47 protein (method not given; SPR in Example 3)

| Binder | Kd [nM] |
| --- | --- |
| B1 | 146 |
| B2 | 320 |
